In patent US20190345246A1 (TYMPOBIO, published 2019):

T1: recombinant canine IL-1β (canine, UniProt Q28292 115-266, limits assumed)
T1 construct: also called Canine rIL-1β
T1 sequence (looked up): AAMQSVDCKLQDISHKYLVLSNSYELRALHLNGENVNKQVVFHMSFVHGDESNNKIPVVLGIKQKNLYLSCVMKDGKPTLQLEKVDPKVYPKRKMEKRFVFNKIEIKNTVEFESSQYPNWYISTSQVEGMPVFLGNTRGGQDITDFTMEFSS


Key:
recombinant human IL-1β [1] = target: T2, recombinant human IL-1β (human, UniProt P01584 117-269); assay: cell-based or functional assay
Rhesus monkey rIL-1β = target: T3, Rhesus monkey rIL-1β (rhesus monkey, UniProt P48090 117-269); assay: cross-reactivity table (direct ELISA)
T3 construct: also called rhesus macaque IL-1β; rhesus IL-1β
T3 sequence (P48090 117-269 limits assumed): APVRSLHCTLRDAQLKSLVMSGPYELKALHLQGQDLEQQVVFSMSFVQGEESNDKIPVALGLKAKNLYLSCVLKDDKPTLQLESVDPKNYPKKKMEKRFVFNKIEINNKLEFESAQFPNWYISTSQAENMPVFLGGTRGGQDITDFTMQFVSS
Procedure: (§1) Plate wells were coated with each protein and incubated overnight at 4° C.

Cynomolgus rIL-1β = target: T4, Cynomolgus rIL-1β (cynomolgus, UniProt P79182 117-268, limits assumed); assay: cross-reactivity table (direct ELISA)
T4 construct: also called cynomolgus IL-1β
T4 sequence (P79182 117-268 limits assumed): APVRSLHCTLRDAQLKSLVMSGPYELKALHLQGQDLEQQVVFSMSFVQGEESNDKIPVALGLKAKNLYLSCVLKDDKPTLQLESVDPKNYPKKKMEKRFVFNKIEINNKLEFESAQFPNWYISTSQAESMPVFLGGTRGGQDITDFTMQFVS
Procedure: as §1

recombinant human IL-1β [2] = target: T2, recombinant human IL-1β; assay: cell-based or functional assay; remark: listed apart in the source
recombinant human IL-1β [3] = target: T2, recombinant human IL-1β; assay: cell-based or functional assay; remark: listed apart in the source
recombinant human IL-1β [4] = target: T2, recombinant human IL-1β; assay: Kinetic Exclusion Assay (KinExA, Sapidyne)
Excerpt: Kd is a specific type of equilibrium constant that measures the propensity of a larger object to separate (dissociate) reversibly into smaller components. A Kd analysis requires immobilization of one interaction partner (the […] binding partner) to a solid phase which is then used as a probe to capture the other interaction partner. For each experiment, one of the binding partners is titrated in a background of the captured binding partner (CBP) and allowed to reach equilibrium. The solutions are then briefly exposed to the solid phase and a portion of free CBP is captured. The captured CBP is then labelled with a fluorescent secondary molecule. The signals generated from CBP are used to calculate the Kd value which is directly proportional to the concentration of free CBP in the equilibrated sample.

recombinant canine IL-1β = target: T1, recombinant canine IL-1β; assay: cross-reactivity table (Table 2), direct ELISA; text: no detectable binding to canine IL-1β
Procedure: Recombinant human IL-1β 1 mg/ml was diluted with the coating buffer to a final concentration of 2 μg/ml. 50 μl was added to the designated wells. Canine IL-1β, porcine/swine IL-1β, guinea pig IL-1β, human IL-1ra and human IL-6 were diluted in the coating buffer and added to distinct wells on the plates. Plates were incubated overnight at 4° C. […] The bound scFvs and control antibodies were detected with Protein L-Peroxidase L-HRP (1:3000), rabbit anti-goat HRP (1:5000) and streptavidin HRP (1:3000).

IC50 (read off the curve), inhibition of rhIL-1β-induced IL-6 release from human dermal fibroblasts (recombinant human IL-1β [1]) [pM] | binding result (Rhesus monkey rIL-1β) | binding result (Cynomolgus rIL-1β) | IC50 (column head of Table 2) (recombinant human IL-1β [2]) [pM] | IC50, inhibition of IL-1β-induced IL-6 release from normal human dermal fibroblasts (IL-6 ELISA) (recombinant human IL-1β [3]) [pM] | potency relative to IL-1RA, inhibition of IL-1β-induced IL-6 release (recombinant human IL-1β [3]) [fold] | Kd (recombinant human IL-1β [4]) [pM] | koff (recombinant human IL-1β [4]) [s⁻¹] | kon (recombinant human IL-1β [4]) [M⁻¹ s⁻¹] | binding result (recombinant canine IL-1β) | Binder
~60 |  |  |  |  |  |  |  |  |  | canakinumab (antibody, V domains shown) VH: QVQLVESGGGVVQPGRSLRLSCAASGFTFSVYGMNWVRQAPGKGLEWVAIIWYDGDNQYYADSVKGRFTISRDNSKNTLYLQMNGLRAEDTAVYYCARDLRTGPFDYWGQGTLVTVSS VL: EIVLTQSPDFQSVTPKEKVTITCRASQSIGSSLHWYQQKPDQSPKLLIKYASQSFSGVPSRFSGSGSGTDFTLTINSLEAEDAAAYYCHQSSSLPFTFGPGTKVDIKR
 | binds | binds | 2 to 3 | 3 | 10 | 0.756 | 5.7e-06 | 7.55e+06 | no binding | DLX-2323 (scFv, Humanized single chain antibody fragment expressed in E. coli (inclusion bodies)) scFv: EIVMTQSPSTLSASVGDRVIITCQASQSIDNWLSWYQQKPGKAPKLLIYRASTLASGVPSRFSGSGSGAEFTLTISSLQPDDFATYYCQNTGGGVSIAFGQGTKLTVLGGGGGSGGGGSGGGGSGGGGSEVQLVESGGGLVQPGGSLRLSCTASGFSLSSAAMAWVRQAPGKGLEWVGIIYDSASTYYASWAKGRFTISRDTSKNTVYLQMNSLRAEDTAVYYCARERAIFSGDFVLWGQGTLVTVSS
